Measured values published in the supplement of paper PMC10724198.
± gives the standard deviation of the averaged measurements.

tested on: Saccharomyces cerevisiae; assay: protein stability index of tFT-peptide fusion (C-terminal peptide) (PSI (0-1 scale)); higher = more stable (slower turnover); details: genetic background: das1 deletion; temperature: 30 C
Description: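 MPS profiling in S. cerevisiae of the tFT-X12 degron library: putative degron peptides plus stable controls, 12 aa, fused to the C-terminus of a sfGFP-mCherry timer. Cells are FACS-sorted into 8 mCherry/sfGFP bins and deep-sequenced. PSI runs from 0 (unstable) to 1 (stable). Backgrounds are wild type, das1Δ and doa10Δ at 30 °C, and wild type, das1Δ, cdc34-1 and cdc53-1 at 37 °C; 2-3 technical replicates each.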
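Note: PSI is a weighted mean of sequencing reads over stability bins, variants kept only with over 10 reads, mCherry proximal and sfGFP distal, peptide attached via GGGS linker.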

| Sequence | protein stability index |
| --- | --- |
| KIILMCYTLITL | 0.228 ± 0.039 |
| KIKQIKINNKIN | 0.703 ± 0.026 |
| KKIKKYTRKLKI | 0.673 ± 0.05 |
| KKKKRVKIQKKN | 0.683 ± 0.041 |
| KKNLTHSIRVQA | 0.567 ± 0.033 |
| KMKGLINKRKES | 0.655 ± 0.037 |
| KNVFLIRGRKNC | 0.638 ± 0.029 |
| KSRLFCFVYFLL | 0.311 ± 0.032 |
| KTDVYPVSFFTC | 0.645 ± 0.043 |
| KVLLYWRHAQRQ | 0.654 ± 0.019 |
| KYKLYGIMIIEG | 0.283 ± 0.039 |
| LAGLVRFWGCVG | 0.656 ± 0.015 |
| LASSCYRHLLVV | 0.289 ± 0.029 |
| LCCTLFFCYSYH | 0.418 ± 0.017 |
| LCSCMWISAIAI | 0.435 ± 0.024 |
| LCSLPIVCCFFL | 0.434 ± 0.031 |
| LCVGFISFCFCL | 0.451 ± 0.0075 |
| LCYFFFISLFLG | 0.465 ± 0.021 |
| LFGFILLGVSCC | 0.164 ± 0.029 |
| LFLIFFSFLFLC | 0.206 ± 0.024 |
| LFLIYCFAFSIG | 0.22 ± 0.034 |
| LFNRCCTILVVW | 0.198 ± 0.02 |
| LFSVFSLVLFIF | 0.34 ± 0.029 |
| LFVSLSFVVFLP | 0.26 ± 0.037 |
| LFVVFVLLTFFV | 0.243 ± 0.032 |
| LGSCSLIYRKFS | 0.639 ± 0.02 |

| Sequence | protein stability index |
| --- | --- |
| LHLSSFVILLEL | 0.353 ± 0.024 |
| LIEMVTTRYRLC | 0.622 ± 0.016 |
| LKTKKKKTNTQK | 0.717 ± 0.03 |
| LLCLLLVPQPHR | 0.5965 ± 0.0049 |
| LLFCFSVILFTC | 0.187 ± 0.033 |
| LLMCCLPFLWVF | 0.328 ± 0.039 |
| LLRFFPLLLFSF | 0.213 ± 0.03 |
| LLSPFLLMLLFL | 0.344 ± 0.007 |
| LLTGRFRILLVV | 0.176 ± 0.019 |
| LLVRYRRALVLL | 0.425 ± 0.025 |
| LLVRYYLFYVLV | 0.316 ± 0.048 |
| LMLISFLFLSLL | 0.448 ± 0.023 |
| LPALPFPIPTFA | 0.186 ± 0.027 |
| LPLSPPPLPSSR | 0.634 ± 0.019 |
| LPSLPPPPPPPP | 0.673 ± 0.044 |
| LPVSLWLVCSFF | 0.432 ± 0.023 |
| LQLGFCFVAQFI | 0.491 ± 0.035 |
| LQNCRVSVLLGW | 0.485 ± 0.019 |
| LRFYLLTPPSPA | 0.481 ± 0.024 |
| LRKARLFLKAKC | 0.497 ± 0.032 |
| LRLCMVFAWFLT | 0.351 ± 0.029 |
| LRLEFRTNWFLQ | 0.654 ± 0.015 |
| LRVVLVEWMCVV | 0.274 ± 0.037 |
| LRVVVGLCMCVL | 0.396 ± 0.024 |
| LSCCIVLLIIFV | 0.27 ± 0.026 |
| LSFLLLLGCFGS | 0.476 ± 0.019 |

| Sequence | protein stability index |
| --- | --- |
| LSGVLFSLIRFY | 0.517 ± 0.03 |
| LSLWLFRILSVR | 0.335 ± 0.023 |
| LSPPLRHRLTPP | 0.687 ± 0.032 |
| LSVRLYRTVFLV | 0.53 ± 0.02 |
| LSVYGFYKMPAG | 0.487 ± 0.011 |
| LVAGFVFIFFYR | 0.339 ± 0.033 |
| LVCLTPPPSPFS | 0.323 ± 0.04 |
| LVDPFAALRHVV | 0.709 ± 0.016 |
| LVGWSWRGWFVV | 0.6201 ± 0.0015 |
| LVIFSLLFSFSH | 0.212 ± 0.032 |
| LVLVVFCPLWFW | 0.401 ± 0.037 |
| LVPLSLLLCFFV | 0.411 ± 0.028 |
| LWAPFWVSRVTA | 0.408 ± 0.035 |
| LWGLVWGGVWGV | 0.564 ± 0.014 |
| LYRIETLFMRAQ | 0.435 ± 0.035 |
| LYVQSVCFSVPR | 0.445 ± 0.021 |
| MALAVRVVLCGA | 0.165 ± 0.026 |
| MALAVRVVRCGA | 0.302 ± 0.025 |
| MGVTVRVEGIRA | 0.368 ± 0.03 |
| MLIAISASAARF | 0.417 ± 0.027 |
| MLLFVSCCVFLF | 0.202 ± 0.038 |
| MMYTLSMLLRLR | 0.506 ± 0.016 |
| MPQSLKKMVFLA | 0.61 ± 0.032 |
| MRLQLTFSILLF | 0.378 ± 0.021 |
| MSRALSVLVVVA | 0.213 ± 0.036 |
| MTLYSFSSALLA | 0.316 ± 0.014 |

same assay, conditions: genetic background: das1 deletion; temperature: 37 C

| Sequence | protein stability index |
| --- | --- |
| KIILMCYTLITL | 0.43 ± 0.018 |
| KIKQIKINNKIN | 0.758 ± 0.043 |
| KKIKKYTRKLKI | 0.719 ± 0.053 |
| KKKKRVKIQKKN | 0.689 ± 0.041 |
| KKNLTHSIRVQA | 0.696 ± 0.011 |
| KMKGLINKRKES | 0.68 ± 0.015 |
| KNVFLIRGRKNC | 0.721 ± 0.018 |
| KSRLFCFVYFLL | 0.501 ± 0.007 |
| KTDVYPVSFFTC | 0.711 ± 0.055 |
| KVLLYWRHAQRQ | 0.733 ± 0.01 |
| KYKLYGIMIIEG | 0.472 ± 0.026 |
| LAGLVRFWGCVG | 0.748 ± 0.019 |
| LASSCYRHLLVV | 0.4343 ± 0.0036 |
| LCCTLFFCYSYH | 0.554 ± 0.038 |
| LCSCMWISAIAI | 0.582 ± 0.014 |
| LCSLPIVCCFFL | 0.5703 ± 0.0027 |
| LCVGFISFCFCL | 0.53 ± 0.015 |
| LCYFFFISLFLG | 0.55 ± 0.0089 |
| LFGFILLGVSCC | 0.22 ± 0.0022 |
| LFLIFFSFLFLC | 0.26132 ± 1.1e-05 |
| LFLIYCFAFSIG | 0.4171 ± 0.00091 |
| LFNRCCTILVVW | 0.343 ± 0.01 |
| LFSVFSLVLFIF | 0.501 ± 0.0086 |
| LFVSLSFVVFLP | 0.421 ± 0.013 |
| LFVVFVLLTFFV | 0.337 ± 0.014 |
| LGSCSLIYRKFS | 0.703 ± 0.029 |

| Sequence | protein stability index |
| --- | --- |
| LHLSSFVILLEL | 0.458 ± 0.018 |
| LIEMVTTRYRLC | 0.717 ± 0.034 |
| LKTKKKKTNTQK | 0.68 ± 0.038 |
| LLCLLLVPQPHR | 0.651 ± 0.017 |
| LLFCFSVILFTC | 0.291 ± 0.018 |
| LLMCCLPFLWVF | 0.4679 ± 0.0022 |
| LLRFFPLLLFSF | 0.278 ± 0.02 |
| LLSPFLLMLLFL | 0.432 ± 0.0046 |
| LLTGRFRILLVV | 0.276 ± 0.004 |
| LLVRYRRALVLL | 0.53 ± 0.023 |
| LLVRYYLFYVLV | 0.477 ± 0.014 |
| LMLISFLFLSLL | 0.529 ± 0.031 |
| LPALPFPIPTFA | 0.201 ± 0.005 |
| LPLSPPPLPSSR | 0.704 ± 0.014 |
| LPSLPPPPPPPP | 0.732 ± 0.024 |
| LPVSLWLVCSFF | 0.5682 ± 0.00058 |
| LQLGFCFVAQFI | 0.6394 ± 0.0044 |
| LQNCRVSVLLGW | 0.6275 ± 0.0042 |
| LRFYLLTPPSPA | 0.631 ± 0.0089 |
| LRKARLFLKAKC | 0.705 ± 0.0046 |
| LRLCMVFAWFLT | 0.493 ± 0.021 |
| LRLEFRTNWFLQ | 0.752 ± 0.017 |
| LRVVLVEWMCVV | 0.418 ± 0.0054 |
| LRVVVGLCMCVL | 0.516 ± 0.0088 |
| LSCCIVLLIIFV | 0.39762 ± 0.00019 |
| LSFLLLLGCFGS | 0.59 ± 0.027 |

| Sequence | protein stability index |
| --- | --- |
| LSGVLFSLIRFY | 0.696 ± 0.008 |
| LSLWLFRILSVR | 0.4987 ± 0.0027 |
| LSPPLRHRLTPP | 0.712 ± 0.029 |
| LSVRLYRTVFLV | 0.6697 ± 0.0046 |
| LSVYGFYKMPAG | 0.561 ± 0.018 |
| LVAGFVFIFFYR | 0.49 ± 0.018 |
| LVCLTPPPSPFS | 0.5136 ± 0.0026 |
| LVDPFAALRHVV | 0.71 ± 0.013 |
| LVGWSWRGWFVV | 0.769 ± 0.015 |
| LVIFSLLFSFSH | 0.394 ± 0.018 |
| LVLVVFCPLWFW | 0.5794 ± 0.0036 |
| LVPLSLLLCFFV | 0.551 ± 0.0063 |
| LWAPFWVSRVTA | 0.5677 ± 0.0039 |
| LWGLVWGGVWGV | 0.729 ± 0.012 |
| LYRIETLFMRAQ | 0.407 ± 0.035 |
| LYVQSVCFSVPR | 0.5091 ± 0.002 |
| MALAVRVVLCGA | 0.192 ± 0.0025 |
| MALAVRVVRCGA | 0.4769 ± 0.0017 |
| MGVTVRVEGIRA | 0.55332 ± 0.0004 |
| MLIAISASAARF | 0.501 ± 0.016 |
| MLLFVSCCVFLF | 0.292 ± 0.0093 |
| MMYTLSMLLRLR | 0.528 ± 0.015 |
| MPQSLKKMVFLA | 0.6621 ± 0.005 |
| MRLQLTFSILLF | 0.393 ± 0.0059 |
| MSRALSVLVVVA | 0.323 ± 0.0062 |
| MTLYSFSSALLA | 0.461 ± 0.002 |
